Laboratory results published in US9766239.
Where no end group is shown, it is not given here. scaffold 1571 = not defined here

Columns and labels:
[1] = target: Norovirus surrogate virus-like particle, type GII.4 Minerva strain (human Norovirus GII.4 Minerva strain); assay: SPR, unpurified peptide against nVLP GII.4
[2] = target: Norovirus surrogate virus-like particle, type GII.4 Minerva strain (human Norovirus GII.4 Minerva strain); assay: direct ELISA on purified GII.4 nVLP
[3] = target: Norovirus surrogate virus-like particle, type GII.4 Minerva strain (human Norovirus GII.4 Minerva strain); assay: capture of VLP from a dilute solution by the synbody
[4] = target: GII.4 Sydney# Norovirus VLP (Norovirus GII.4 Sydney strain); assay: as above

Binder | % Stability [1] | Avg Binding (Spot 1/2) [1] | koff [1] | Kd [2] | Enrichment Factor from 1 ng/µL solution [3] | Enrichment Factor from 1 ng/µL solution [4]
RWHRVKLRSHTELNRYIGSC [Mut Peptide-92] | 57% | 230 | 0.00355 s⁻¹ |  |  | 
AWARSNNSRSKAFNLGWGSC(scaffold 1571) (designed binder, reading uncertain; also: two peptides coupled by Cys to scaffold 1571 (dimer)) [nVLP81-81-1571] |  |  |  | 3 nM |  | 
RWVRVKLRSHTKLNRYIGSC(scaffold 1571) (designed binder, reading uncertain; also: two peptides coupled by Cys to scaffold 1571 (dimer)) [nVLP94-94-1571] |  |  |  | 1 nM | 7 | 3
RWVRVKLRSHTELNRYIGSC(scaffold 1571) (designed binder, reading uncertain; also: two peptides coupled by Cys to scaffold 1571 (dimer)) [nVLP93-93-1571] |  |  |  | 4 nM | 10 | 3
RWVRVKLRSHTKLNRYIGSC [Mut Peptide-94] | 63% | 358 | 0.00294 s⁻¹ |  |  | 
VWARKNNKRKKDFNAGWGSC [Mut Peptide-53] | 51% | 189 | 0.00408 s⁻¹ |  |  | 
DWARKNNKRKMNFNLGWGSC(scaffold 1571) (designed binder, reading uncertain; also: two peptides coupled by Cys to scaffold 1571 (dimer)) [nVLP60-60-1571] |  |  |  | 2 nM |  | 
VWARKNNSRSKDFNAGWGSC(scaffold 1571) (designed binder, reading uncertain; also: two peptides coupled by Cys to scaffold 1571 (dimer)) [nVLP55-55-1571] |  |  |  | 9 nM |  | 
SWARSNNKRSKAFNLGWGSC(scaffold 1571) (designed binder, reading uncertain; also: two peptides coupled by Cys to scaffold 1571 (dimer)) [nVLP78-78-1571] |  |  |  | 5 nM |  | 
AWARSNNSRSKAFNLGWGSC [Mut Peptide-81] | 45% | 128 | 0.00455 s⁻¹ |  |  | 
SWARSNNKRSKAFNLGWGSC [Mut Peptide-78] | 46% | 169 | 0.00431 s⁻¹ |  |  | 
DWARKNNKRKMNFNLGWGSC [Mut Peptide-60] | 44% | 134 | 0.00487 s⁻¹ |  |  | 
RWVRVKLRSHTELNRYIGSC [Mut Peptide-93] | 60% | 274 | 0.00332 s⁻¹ |  |  | 
VWARKNNKRKKDFNAGWGSC(scaffold 1571) (designed binder, reading uncertain; also: two peptides coupled by Cys to scaffold 1571 (dimer)) [nVLP53-53-1571] |  |  |  | 1 nM |  | 
RWHRVKLRSHTELNRYIGSC(scaffold 1571) (designed binder, reading uncertain; also: two peptides coupled by Cys to scaffold 1571 (dimer)) [nVLP92-92-1571] |  |  |  | 3 nM | 3 | 
